Assay: label from the status in PepcDB records

| Sequence | protein production |
| --- | --- |
| MSLKIKNILLSGGSGKRLWPLSRSLYPKQFLKLFDHKSLFELSFKRNASLVDETLIVCNEKHYFLALEEIKNEIKNKSVGFLLESLSKNTANAIALSALMSDKEDLLIVTPSDHLIKDLQAYENAIKKAIDLAQKGFLVTFGVSIDKPNTEFGYIESPNGLDVKRFIEKPSLDKAIEFQKSGGFYFNSGMFVFQAGVFLDELKKHAPTILKGCERAFESLENAYFFEKKIARLSEKSMQDLEDMSIDIALMQQSHKIKMVELNAKWSDLGNFNALFEEAANEPKENVSLNQTPVFAKESEEGHHHHHH | not failed |
| MAEKISVKTADTNADEIDLGRLLGTLLDNRWLIIGVTAIFLIFGILYATLATPIYKADALVQVEKNSSNKLINDITSMLPDAKPESAAEVELITSRMIIGKTVNDLALDINVQQNYFPFFGKGIARLTGATKGVLAVSRLEVPDSWKDEPIILTVTDNKNYSISAGDAVRFEGQVGRLERHDGMTLLISDIAADEGTTFSIKKLNQLTAINNILKTLTVADRGKDTGVLALSLEGEDPILTNKILNSISENYLQQNVERKSEESGRSLEFLKEQLPNVRSILDEADNKLNIFRQKNESVDLSLEAKSVLETMVALEAQLNELTFKEAEISKLYTKEHPAYRALLEKRKTLEEEKEKINKRVGAMPKTQQEIIRLTRDVKAGQEVYMQLLNKQQELSINKASTVGNVRIIDSAVVQLRPVKPEKVFIVLLSIILGGLLSVSFVLIRTILHKGIESPEQLAELGISVYASVPLSAWQQKKDRALLGKGKRGNTRSTELLAVGNPADLAIEAIRSLRTSLHFAMMEAKNNVLMISGASPAIGKTFVSANLGAVIAQSGQRVLIVDCDMRKGYAHELMGCQGTDGLSDILSGQITTDKSIRKTAVENMDFIPRGQIPPNPSELLMHSRFSQFIDWATKNYDIVLLDTPPILAVTDAAVISRHAGTSLLVARFEVNTLKEIEVSIRRFEQNGTEIKGVILNAIVKRAASYYSYGNYDYYSYEYKSDK | failed |
| MSLSLSHFRITRFQFARDRVIGDSQVRADDVNVAALELVSESGEVGLGFIQTLFNPLPDQQEIESVFEHEVWPSLKGNRAIALVHRVNRPRGGNQRAYSLPFHEAVQVALWDLAAKEAGLPLHVLLGSRRNRVKAYASGLDFHLDDDAFVSLFSHAASIGYSAFKIKVGHRDFDRDLRRLELLKTCVPAGSKVMIDPNEAWTSKEALTKLVAIREAGHDLLWVEDPILRHDHDGLRTLRHAVTWTQINSGEYLDLQGKRLLLEAHAADILNVHGQVTDVMRIGWLAAELGIPISIGNTFLEAGVHMAVALPEVEWLEYSFQNFDHLVEQPIEIRDGYAYAPDRPGHGLVLSEKARGEWSRPRRLARSELGAAPENPRLPAKEGHHHHHH | not failed |
| MIPIVDSRIGAYLDGLLPEADPVVAAMEQIARERNIPIVDRQTGRLLYLLARIKQPQLVVVPGDGLGCASWWFARAISISSRVVMIDPDRDNVEHARRMLHDNGLIDRVELQVGDPLGIAAGQRDIDILFMDCDVFNGADVLERMNRCLAKNALLIAVNALRRGSVAESHEDPETAALREFNHHLSRRRDFFTTIVPVGNGVLLGYRLS | not failed |
| VWRPKSVSRDDVMVTEYGAVTSERPLPAGTTYSATSVTPPDDPEVLRTSGRDYPADIESRYTGVPASTSAQVGPFTDRLTEDSDSPYQTAATIEQWLEANKNYSLNVSQPPEDDVASEFIFQMDKGYCEYFATSMVVMLRSQDIPARYVVGYSTGERTGQNQYTVRGMNAHAWVEVYFEGVGWVKFDPTPGQ | failed |
| MPTPAYIKIVGQTQGNITAGAFTADSVGNVFQQGHEDQILVQEIKHEVTTPTDPQSGQPSGQRVHKPFIFTSSLNKATPLMYQALATGEMLPTVEVSWYRTSSEGKQEHFFTTTLEDATIVSINTVLPHALDKDNENYTQLVEVSLAYRKITWAHDVANTEGSDDWRAPAA | failed |
| MPRGLILATPQLPPDGTPFSARYDDVYHSTEGGLAQAHHVFLGGNGLPGGWQGKRSFTIVETGFGQGLNFLATWAAWRDDPQRCGRLDFVSVEKHPFDRAGLALVHAQEGALASLAEALRQAWPVPVPGVHRLVFDAGRVTLTLMLGDAETLLPQLSCAADAFYLDGFSPAKNPDLWQPGVFKQLARIARGGATLATYTAAGAVRHGLREAGFEVRKAPGFGRKRDMTVAAFPTHWRTRRGPAEAPVWPERHAIVLGAGLAGCSVAERLAARGWRITLIDEHEAPAGGASAHRAAAMHPHVSIDDSVLSRLSRAGNLLARRHWEALDRAGFATGFHPTGVLQLAEHADDAAEQQRIVQALGFPADFIAWLDAARAADRVGAGVPQGGWWFAQAGWVAPPDICRAALAAAGEAVELRWRTRIESLLRHDAGWRACDAQGNVIAHAPVVVLANSLDAVRLAPLASAALKPVRGQLTDVPVAALEDGVPWPRAVVCGDGYLLPRERGAPTVRVGSSFQPGETDPDARTADHAANLRRLAGLQPAHAAALARVDPARLLGYVGVRCVSANRLPLIGAVADEAAIMAPGFRLRGPHAALPRVPGLYAALAYGSRGLTWSVLGAELLAAQIDGGPLPLESELAAALDPGRFLMRALRHGKHAA | failed |
| MNALARLRGRKVVPQRSDGELDAMAAAGAVVAAALQAVRAAAVAGVSTLSLDQIAESVIRDAGAVPSFLGYHGYPASICASVNDRVVHGIPSAAEVLAPGDLVSIDCGAVLDGWHGDAAITFGVGALDPADEALCQGTRESLEAGIAAMVPGNRLTDVSHAIELGTRAAETRHGRAFGIVEGYGGHGIGRQMHMDPFLPNEGSPGRGPLLAPGSVLAIEPMLTLGTGKTVVLDDQWTVITTDGSRAAHWEHTVAVTDAGPRILTIG | failed |
| MDTLDGLKTVVAVVETNSFTAASDRLGISKALVSKYVGEVENQLGIRLFNRTTRQLALTDSGRRYYEEAIILLEQFSAMVDNVTGEQTAPRGLLRISAPVTFGEMRLAPLLPKFIALYPDLTVELVLTNGAIDMLEEGIDVRLRIGGVDDSNMIARHLTNFPLVLSASPNYAQTQGLPTTPEQLGEHHCIIDSNFRIGKQWPFISPKGRAETINVQSGLAVNSPQAVREIAIADGGIAMTPNFIVEDALADGRLLRVMPEYTTLEFGLFAIYPHRKYVARKVRCFIDFVLEQFSKK | failed |
| MVLVLDFGSQYTRLIARRLRELRAFSLILPGDAPLEEVLKHRPQALILSGGPRSVFDPDAPRPDPRLFSSGLPLLGICYGMQLLAQELGGRVERAGRAEYGKALLTRHEGPLFRGLEGEVQVWMSHQDAVTAPPPGWRVVAETEENPVAAIASPDGRAYGVQFHPEVAHTPKGMQILENFLELAGVKRDWTPEHVLEELLREVRERAGKDRVLLAVSGGVDSSTLALLLAKAGVDHLAVFVDHGLLRLGEREEVEGALRALGVNLLVVDAKERFLKALKGVEDPEEKRKIIGREFVAAFSQVARERGPFRFLAQGTLYPDVIESAGGHGAAKIKSHHNVGGLPEDLEFELLEPFRLLFKDEVRELALLLGLPDTLRLRHPFPGPGLAVRVLGEVTEERLEILRRADDIFTSLLREWGLYEKVAQALAVLTPVRSVGVAGDERKYGYVLALRAVTTEDFMTADWARLPLEFLDEAARRITRRVPEIGRVVYDLTSKPPATIEWE | not failed |
| MNKMLYGWLLAACCGLPPAFAGDSVDVLAQPALHGPQALRAVLQDVARADARLVAVGERGVVLLSDDNGATWRQATAVPVGVSLTAVQFIDARNGWAVGHAGVVLHSQDGGEHWSVQLDGKRAAALEVQAAEAAADERRLAAAQRLLADGADKPLLALNFTDARNGLVVGAYGVAMRTDDGGRSWQSEIGRLPNGRGLHLYALARQGNQVYIAGEQGLLLRSRDGGEHYEALHGPYDGSYFAATVLPDGRLLLGGLRGSLFASDDGGDSFQALANPTPASINGLRVAGGQLLLANQAGMLLRSGLGAFAAQPVAVSDGLPLTAATTAADGSIVAVGMAGARRLEPSSLSTTTD | failed |
| AQGVGVEAILLLRRECQASHEDALHLGLAEHAPVIELQTLRKLDGQAVSLIFHRYSAVYHELLADYQGGSVRQYLAECGLPLSRAQSLIGARLPSREEAGLLLMPRHMPALTVLTVSCDGAGQPVELSRSVSRSDRFQYQVATAIPTR | not failed |
| MGRLSVAPLAQLNRLRVRLSLVFVLFLLLVIGLGAFSINRLSAFHNVAAEISGRWLLSNRIAGDLNNSISDFRATEGELLTARRGKDRGRAEGSLAVLDEEIADAKRRYETIEHDPIELDLYRQFSEQWRAYRELANRVLVLSQRDDKTDAIALYYQESRRAFTVANATLATLTERNVTGANEATQAEAVAYRHARDLIVNAIIVAALLMIAGVLYFVTAVTNPIAELVDRMHRISDNETEIDIPSTERPDEVGEIARAVVRFRDNTVALAQSRATLAEQARTLEITLANERRMAELQRNFVSMVSHEFRTPLTVIDGYAQRLSHIKPPLSLEAVQDRSSRIRAAVRRMTALIEDMLGASQVLDLATPGAFQRTEFSLHLLVHEVCEMHRESSPDAQIVEQWHADVPEVFHGDARLLFQAVSNLIGNAVKYSPPKTPVSVDVSMESGAILICVADQGIGIPEKDLGHVFERYVRGANVTGTAGAGVGLYIVRLAAELHGGTVSVRSAEGTGSRFLLRLPEAPAPAPLSA | failed |
| MSTDDPRFAGIARLYGIEGLARLRAAHVAIVGIGGVGSWAAEAMARSGVGEISLFDMDDVCVSNSNRQLHALDTTVGRPKVEVMAERIRAINPDCVVHAVSDFVTRDTMAECITPDMDFVIDCIDSVNAKAALISWCKRRKIQMVTTGAAGGQIDPTLIQIADLNRTFNDPLASKVRSTLRRDYGFSRTPNRHYSVPCVFSTEQLRYPKPDGSICLEKKFIGDGVKLDCAGGFGAVMMVTATFGMIAATRAVDKLVAGTRRPSERAKPAAVTANQA | failed |
| MEISLLQAFALGIIAFIAGLDMFNGLTHMHRPVVLGPLVGLVLGDLHTGILTGDTLELVWMGLAPLAGAQPPNVIIGTIVGTAFAITTGVKPDVAVGVAVPFAVAVQMGITFLFSVMSGVMSRCDRMAENADTRGIERVNYLALLALGTFYFLCAFLPIYFGAEHAKTIIDVLPQRLIDGLGVAGGIMPAIGFAVLLKIMMKNVYIPYFILGFVAATWLKLPVLAIAAAALAMALIDLLRKSPEPTQPAAQKEEFEDGI | failed |
| AKGKNVIVLHLESFQQFLIDYKLNIDGKQYEVTPFLNSLYHSKETFAFSNFFHQVKAGKTSDAETLMETSLFGLNQGSFFVQYGGDNTQQAAPHILKDTNNYSSAVFHGNIGTFWNRNNAYKQLGYQHFFDQSYMSKMTKDNSFQYGLNDKVMFADSIKYLEHMQQPFYTKFITVSNHYPYQSLDGDDTGFPLAKTEDKTINGYFATANYLDAAIKDFFDYLKASGLYKNSIIVMYGDHYGIANSRNTDLAPLLGKDSQTWTEYNNAMLQRVPYMIHVPGTDKGFISNTYGGEVDALPTLLHLLGIDNKNYIELGQDLLSPNNKQLVAFRSEGNYITPNYTSYSGRVYDTKTGV | failed |
| MNGTALNWLELCRTVGPCLRPGGTALTDRALEVCNLSADSLIADVGCGAGGTLYHLEQIGFRRLVGLDPSETLLGDAAPRLETARLIRGEAATIPLRSATVDLLLCECVLSVLPGRSAPLREFARVVKDGGYLVVSDVFSTAGDEATGQAGGLLTRKELLAAVAGNGFTLLRWETHDRLLKEFAVRMILAGECLPDAWKGGTERKGEAARGGLGYFLMVARKAEDPLP | failed |
| MRYRNSRQVTGVVKNVTVSQSCGKWYISIQAESEVSTPVHPSASMVGLDAGVAKLASLSDGTVFEPVNSFQKNQKTLARLQRQLSRKVKFSNNWQKQKRKIQRLHSCIANIRRDYLHKVTTTVSKNHVMIVIEDLKVSNMSKSAAGTVSQPGRNVRAKSGLNRSILDQGWYEMRRQLEYKQLWRGGQVLAVPPAYTSQRCACCGHTAKENRLSQSKFRCQVCGYTANADVNGARNILAAGHAVLACGEMVQSGRSLKQEPTEMIQATALEHHHHHH | failed |
